In paper PMC2995291 one finds Kd, dH (kcal · mol^−1) and stoichiometry N data, which are given here for 3 substances.

Where two headings read alike, the source gives them in different places.

Experiment [1] addresses human ubiquitin with noncleavable N-terminal (His)6 tag (human) (UniProt P0CG48). Briefly: ITC. A general note: ITC needs no label: the signal is the heat of the interaction.
Experiment [2] shares this target. The experiment can be described thus: ITC. The source holds these as a separate data set.

Turning to “human Polι UBM2 P692A (residues 674–715) (domain or fragment)”, in experiment [1], the Kd (commonly the equilibrium constant for the complex coming apart) is 172 µM.
With “human Polι UBM2 (residues 674–715) (domain or fragment)”, the Kd in experiment [2] is 23 µM.
In experiment [2], “human Polι UBM2 (residues 679–707) (domain or fragment)” had a Kd of 23.6 µM. Also, in experiment [1], the Kd came out at 23.8 µM; the dH (kcal · mol^−1) amounted to 4.5; the stoichiometry N (in general, a count of units in the complex or per binding partner) turned out to be 1.01.
